Measured values: publication PMC3994269
“And” between values parts separate entries of the source, which are not always exact repeats. Equal entries are not always repeated.

Columns and labels:
[1] = biological target: Plasmodium falciparum heat shock factor binding protein (PfHSBP), endogenous (P. falciparum (endogenous in 3D7 parasites)) (UniProt Q8IIF8); test: immunoprecipitation, SDS-PAGE and phosphorimaging; lysate of [35S]-labelled P. falciparum (1% Triton X-100); anti-PfHSBP antiserum 1:25 at 4°C for 12 hours, Protein G beads; Protein G and pre-immune serum controls
[2] = biological target: Plasmodium falciparum heat shock factor binding protein (PfHSBP), endogenous (P. falciparum (endogenous in 3D7 parasites)) (UniProt Q8IIF8); test: SDS-PAGE and immunoblot (SDS-resistant oligomers); P. falciparum lysate resolved on SDS-PAGE and probed with anti-PfHSBP antiserum; pre-immune serum as control
[3] = biological target: Plasmodium falciparum heat shock factor binding protein (PfHSBP), endogenous (P. falciparum (endogenous in 3D7 parasites)) (UniProt Q8IIF8); test: SEC; P. falciparum lysate on Superdex 200 10/300 GL in PBS; fractions immunoblotted for PfHSBP

stoichiometry N [1]: 6
stoichiometry N [2]: 3 and 6
stoichiometry N [3]: 6
Substance: Plasmodium falciparum heat shock factor binding protein (PfHSBP), endogenous (from UniProt Q8IIF8 1-113) (natural protein)
